Reference: article PMC10184827

Tests used:
[1] = molecular target: rabbit muscle actin (RMA; α-actin) (rabbit) (UniProt P68135); experiment: TIRF microscopy of single filament polymerization; 1 µM total actin monomers with 10% fluorescently labeled RMA; TIRF buffer (20 mM imidazole pH 7.4, 50 mM KCl, 1 mM MgCl2, 1 mM EGTA, 0.2 mM ATP, 10 mM DTT, 40 mM glucose, 0.25% methylcellulose); monomer addition to growing filaments
[2] = molecular target: human β-actin (cytoplasmic actin, ACTB) purified from budding yeast (human) (UniProt P60709)
[3] = molecular target: human γ-actin (γ1-actin, cytoplasmic actin, ACTG1) purified from budding yeast (human) (UniProt P63261)
[4] = molecular target: rabbit muscle actin (RMA; α-actin) (rabbit) (UniProt P68135)

mDia1(FH1-C) (amino acids 571–1255), sequence (O08808 571-1255): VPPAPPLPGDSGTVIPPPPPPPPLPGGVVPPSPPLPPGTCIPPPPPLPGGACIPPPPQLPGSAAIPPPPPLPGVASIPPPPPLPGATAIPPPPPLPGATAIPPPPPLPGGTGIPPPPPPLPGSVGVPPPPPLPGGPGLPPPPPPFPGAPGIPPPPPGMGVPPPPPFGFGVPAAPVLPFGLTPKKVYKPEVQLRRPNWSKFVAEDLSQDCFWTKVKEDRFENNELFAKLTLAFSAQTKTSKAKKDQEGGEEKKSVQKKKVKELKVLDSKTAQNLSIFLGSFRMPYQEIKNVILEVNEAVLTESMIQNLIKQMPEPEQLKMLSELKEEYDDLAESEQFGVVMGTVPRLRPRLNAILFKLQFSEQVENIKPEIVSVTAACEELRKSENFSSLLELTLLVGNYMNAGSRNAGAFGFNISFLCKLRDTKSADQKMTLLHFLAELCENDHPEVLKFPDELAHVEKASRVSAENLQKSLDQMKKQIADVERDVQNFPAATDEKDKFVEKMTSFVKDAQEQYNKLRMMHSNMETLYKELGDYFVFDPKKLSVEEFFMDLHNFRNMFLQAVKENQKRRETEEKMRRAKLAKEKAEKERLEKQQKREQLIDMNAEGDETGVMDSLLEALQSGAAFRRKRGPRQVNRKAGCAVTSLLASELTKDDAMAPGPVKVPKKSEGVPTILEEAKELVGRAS

Substance	filament elongation rate (subunits s^−1 µM^−1) [1]	actin filament elongation rate by TIRF microscopy, 1 µM actin with 2 µM PFN1 and 10 nM mDia1(FH1-C) (subunits s^−1 µM^−1) [2]	actin filament elongation rate by TIRF microscopy, 1 µM actin with 2 µM PFN1 and 10 nM mDia1(FH1-C) (subunits s^−1 µM^−1) [3]	actin filament elongation rate by TIRF microscopy, 1 µM actin with 2 µM PFN1 and 10 nM mDia1(FH1-C) (subunits s^−1 µM^−1) [4]
rabbit muscle actin (RMA; α-actin) (from UniProt P68135 1-377) (natural protein)	10	–	–	–
mDia1(FH1-C) (amino acids 571–1255) (from UniProt O08808 571-1255) (domain or fragment)	–	59.3	61.2	73.6
